Read-outs that look alike come from different tables or passages of the source. Square brackets hold non-standard residues; d marks the D form. Ends that are not written are not given here. Cit = NC(=O)NCCC[C@H](N)C(=O)O
What was measured:
[1] = biological target: T1, recombinant MHC class II protein of the HLA DRB1 0401 genotype (human); test: in vitro binding assay
T1 construct: construct not described; also called HLA-DR0401

[2] = biological target: T2, recombinant MHC class II protein of the HLA DRB1 0404 genotype (human); test: in vitro binding assay
T2 construct: construct not described

[3] = biological target: T3, recombinant MHC class II protein of the HLA DRB1 0405 genotype (human); test: in vitro binding assay
T3 construct: construct not described

[4] = biological target: T4, recombinant MHC class II protein of the HLA DRB1 0101 genotype (human); test: in vitro binding assay
T4 construct: construct not described

[5] = biological target: T5, recombinant MHC class II protein of the HLA DRB1 1001 genotype (human); test: in vitro binding assay
T5 construct: construct not described

[6] = biological target: T6, recombinant MHC class II protein of the HLA DRB1 0408 genotype (human); test: in vitro binding assay
T6 construct: construct not described

[7] = biological target: T5, recombinant MHC class II protein of the …; test: in vitro binding assay; remark: listed apart in the source
[8] = biological target: T6, recombinant MHC class II protein of the …; test: in vitro binding assay; remark: listed apart in the source
[9] = biological target: T3, recombinant MHC class II protein of the …; test: in vitro binding assay; remark: listed apart in the source
[10] = biological target: T4, recombinant MHC class II protein of the …; test: in vitro binding assay; remark: listed apart in the source
[11] = biological target: T1, recombinant MHC class II protein of the …; test: in vitro binding assay; remark: listed apart in the source
[12] = biological target: T2, recombinant MHC class II protein of the …; test: in vitro binding assay; remark: listed apart in the source
[13] = biological target: T4, recombinant MHC class II protein of the …; test: in vitro binding assay; remark: listed apart in the source
[14] = biological target: T1, recombinant MHC class II protein of the …; test: in vitro binding assay; remark: listed apart in the source
[15] = biological target: T1, recombinant MHC class II protein of the …; test: binds MHC in vitro
[16] = biological target: T2, recombinant MHC class II protein of the …; test: in vitro binding assay; remark: listed apart in the source

B1: type II collagen peptide ref no 242 (peptide)
peptide: GIVGLPGQRGERGFP
B1: binds [1]; binds [2]; binds [3]. B1: binds [4].

B2: type II collagen peptide ref no 137 (peptide)
peptide: GEPGIAGFKGEQGPK
B2: binds [1]; binds [2]; binds [4].

B3: type II collagen peptide ref no 138 (peptide)
peptide: AGFKGEQGPKGEPGP
B3: binds [1]; binds [4].

B4: type II collagen peptide ref no 263 (peptide)
peptide: GDRGEAGAQGPMGPS
B4: binds [5].

B5: type II collagen peptide ref no 268 (peptide)
peptide: PQGPRGDKGEAGEPG
B5: binds [5].

B6: citrullinated type II collagen peptide ref no 332 (peptide)
peptide: [Cit]GPPGPQGA[Cit]GFPGT
B6: binds [1]; binds [2]; binds [3].

B7: citrullinated type II collagen peptide ref no 357 (peptide)
peptide: APGN[Cit]GFPGQDGLAG
B7: binds [5].

B8: citrullinated type II collagen peptide ref no 362 (peptide)
peptide: PKGANGDPG[Cit]PGEPG
B8: binds [5].

B9: citrullinated type II collagen peptide ref no 384 (peptide)
peptide: QGP[Cit]GLPGTPGTDGP
B9: binds [5]; binds [6].

B10: citrullinated a-enolase peptide ref no 291 (peptide)
peptide: TSKGLF[Cit]AAVPSGAS
B10: binds [7]; no binding [8]; binds [9]. B10: binds [10]; binds [11]; binds [12].

B11: corresponding non-citrullinated peptide of a-enolase peptide 287 (peptide)
peptide: MSILKIHAREIFDSR
B11: no binding [11]; binds [12]; binds [13].

B12: a-enolase peptide ref no 6 (peptide)
peptide: TSKGLFRAAVPSGAS
notes: also called corresponding non-citrinullated peptide of 291
B12: no binding [14]; no binding [7]; no binding [8]. B12: binds [9]; binds [10]; binds [12].

B13: corresponding non-citrullinated peptide of a-enolase peptide 297 (peptide)
peptide: RYMGKGVSKAVEHIN
B13: no binding [11]; binds [13].

B14: corresponding non-citrullinated peptide of a-enolase peptide 313 (peptide)
peptide: KRIAKAVNEKSCNCL
B14: binds [11]; binds [13].

B15: corresponding non-citrullinated peptide of type II collagen peptide 386 (peptide)
peptide: PGLQGMPGERGAAGI
B15: binds [12].

B16: corresponding non-citrullinated peptide of type II collagen peptide 411 (peptide)
peptide: GIVGLPGQRGERGFP
B16: binds [11]; binds [12].

B17: a-enolase peptide ref no 66 (peptide)
peptide: KRIAKAVNEKSCNCL
B17: binds [15]; binds [16]; no binding [7]. B17: binds [8]; binds [9]; binds [10].

Reference: patent US20200407424A1 (FRAUNHOFER GESELLSCHAFT ZUR F RDERUNG DER ANGEWANDTEN …, published 2020)
